In PMC5652782:

Biological target: eIF4E (UniProt P63074)
Test: anti-eIF4E IP, anti-histidine blot
Conditions: reference: wild type Hsp27; sites S15,S78,S82

binding against the reference: weaker
Substance: Hsp27 (from UniProt P04792) 3A (S15A/S78A/S82A)
